Assay results: PMC10770755, “Effects of specific disease mutations in non-muscle myosin 2A on its structure and function” (The Journal of Biological Chemistry, 2023)

Molecular target: the molecule itself
Assay: negative stain electron microscopy of filaments; self-assembly into filaments on dilution into low-salt buffer (10 mM phosphate, pH 7.4, 150 mM NaCl, 0.5 mM TCEP), on ice, 200 to 500 nM protein; stained with 1% uranyl acetate

Row | Protein | binding result
1 | GST-LMM, wild type (light meromyosin of human non-muscle myosin 2A heavy chain, residues 1212-1960) (domain or fragment, UniProt P35579 1212-1960, looked up, pGEX-6P-1 adds GST and a PreScission site at the N-terminus; GST kept for EM; also called WT GST-LMM; source: E. coli Rosetta 2, purified (Glutathione Sepharose 4B); not shown: GST, N-terminal, kept) KANLEKAKQTLENERGELANEVKVLLQGKGDSEHKRKKVEAQLQELQVKFNEGERVRTELADKVTKLQVELDNVTGLLSQSDSKSSKLTKDFSALESQLQDTQELLQEENRQKLSLSTKLKQVEDEKNSFREQLEEEEEAKHNLEKQIATLHAQVADMKKKMEDSVGCLETAEEVKRKLQKDLEGLSQRHEEKVAAYDKLEKTKTRLQQELDDLLVDLDHQRQSACNLEKKQKKFDQLLAEEKTISAKYAEERDRAEAEAREKETKALSLARALEEAMEQKAELERLNKQFRTEMEDLMSSKDDVGKSVHELEKSKRALEQQVEEMKTQLEELEDELQATEDAKLRLEVNLQAMKAQFERDLQGRDEQSEEKKKQLVRQVREMEAELEDERKQRSMAVAARKKLEMDLKDLEAHIDSANKNRDEAIKQLRKLQAQMKDCMRELDDTRASREEILAQAKENEKKLKSMEAEMIQLQEELAAAERAKRQAQQERDELADEIANSSGKGALALEEKRRLEARIAQLEEELEEEQGNTELINDRLKKANLQIDQINTDLNLERSHAQKNENARQQLERQNKELKVKLQEMEGTVKSKYKASITALEAKIAQLEEQLDNETKERQAACKQVRRTEKKLKDVLLQVDDERRNAEQYKDQADKASTRLKQLKRQLEEAEEEAQRANASRRKLQRELEDATETADAMNREVSSLKNKLRRGDLPFVVPRRMARKGAGDGSDEEVDGKADGAEAKPAE | binds
2 | GST-LMM V1516M (domain or fragment, human, UniProt P35579 1212-1960, looked up, MYH9 disease mutation; also called V1615M [sic]; source: E. coli Rosetta 2, purified (Glutathione Sepharose 4B); not shown: GST, N-terminal, kept) KANLEKAKQTLENERGELANEVKVLLQGKGDSEHKRKKVEAQLQELQVKFNEGERVRTELADKVTKLQVELDNVTGLLSQSDSKSSKLTKDFSALESQLQDTQELLQEENRQKLSLSTKLKQVEDEKNSFREQLEEEEEAKHNLEKQIATLHAQVADMKKKMEDSVGCLETAEEVKRKLQKDLEGLSQRHEEKVAAYDKLEKTKTRLQQELDDLLVDLDHQRQSACNLEKKQKKFDQLLAEEKTISAKYAEERDRAEAEAREKETKALSLARALEEAMEQKAELERLNKQFRTEMEDLMSSKDDMGKSVHELEKSKRALEQQVEEMKTQLEELEDELQATEDAKLRLEVNLQAMKAQFERDLQGRDEQSEEKKKQLVRQVREMEAELEDERKQRSMAVAARKKLEMDLKDLEAHIDSANKNRDEAIKQLRKLQAQMKDCMRELDDTRASREEILAQAKENEKKLKSMEAEMIQLQEELAAAERAKRQAQQERDELADEIANSSGKGALALEEKRRLEARIAQLEEELEEEQGNTELINDRLKKANLQIDQINTDLNLERSHAQKNENARQQLERQNKELKVKLQEMEGTVKSKYKASITALEAKIAQLEEQLDNETKERQAACKQVRRTEKKLKDVLLQVDDERRNAEQYKDQADKASTRLKQLKRQLEEAEEEAQRANASRRKLQRELEDATETADAMNREVSSLKNKLRRGDLPFVVPRRMARKGAGDGSDEEVDGKADGAEAKPAE | binds
3 | GST-LMM D1447H (domain or fragment, human, UniProt P35579 1212-1960, looked up, MYH9 disease mutation; source: E. coli Rosetta 2, purified (Glutathione Sepharose 4B); not shown: GST, N-terminal, kept) KANLEKAKQTLENERGELANEVKVLLQGKGDSEHKRKKVEAQLQELQVKFNEGERVRTELADKVTKLQVELDNVTGLLSQSDSKSSKLTKDFSALESQLQDTQELLQEENRQKLSLSTKLKQVEDEKNSFREQLEEEEEAKHNLEKQIATLHAQVADMKKKMEDSVGCLETAEEVKRKLQKDLEGLSQRHEEKVAAYDKLEKTKTRLQQELDDLLVDLDHQRQSACNLEKKQKKFHQLLAEEKTISAKYAEERDRAEAEAREKETKALSLARALEEAMEQKAELERLNKQFRTEMEDLMSSKDDVGKSVHELEKSKRALEQQVEEMKTQLEELEDELQATEDAKLRLEVNLQAMKAQFERDLQGRDEQSEEKKKQLVRQVREMEAELEDERKQRSMAVAARKKLEMDLKDLEAHIDSANKNRDEAIKQLRKLQAQMKDCMRELDDTRASREEILAQAKENEKKLKSMEAEMIQLQEELAAAERAKRQAQQERDELADEIANSSGKGALALEEKRRLEARIAQLEEELEEEQGNTELINDRLKKANLQIDQINTDLNLERSHAQKNENARQQLERQNKELKVKLQEMEGTVKSKYKASITALEAKIAQLEEQLDNETKERQAACKQVRRTEKKLKDVLLQVDDERRNAEQYKDQADKASTRLKQLKRQLEEAEEEAQRANASRRKLQRELEDATETADAMNREVSSLKNKLRRGDLPFVVPRRMARKGAGDGSDEEVDGKADGAEAKPAE | binds
4 | GST-LMM D1447G (domain or fragment, human, UniProt P35579 1212-1960, looked up, MYH9 disease mutation; source: E. coli Rosetta 2, purified (Glutathione Sepharose 4B); not shown: GST, N-terminal, kept) KANLEKAKQTLENERGELANEVKVLLQGKGDSEHKRKKVEAQLQELQVKFNEGERVRTELADKVTKLQVELDNVTGLLSQSDSKSSKLTKDFSALESQLQDTQELLQEENRQKLSLSTKLKQVEDEKNSFREQLEEEEEAKHNLEKQIATLHAQVADMKKKMEDSVGCLETAEEVKRKLQKDLEGLSQRHEEKVAAYDKLEKTKTRLQQELDDLLVDLDHQRQSACNLEKKQKKFGQLLAEEKTISAKYAEERDRAEAEAREKETKALSLARALEEAMEQKAELERLNKQFRTEMEDLMSSKDDVGKSVHELEKSKRALEQQVEEMKTQLEELEDELQATEDAKLRLEVNLQAMKAQFERDLQGRDEQSEEKKKQLVRQVREMEAELEDERKQRSMAVAARKKLEMDLKDLEAHIDSANKNRDEAIKQLRKLQAQMKDCMRELDDTRASREEILAQAKENEKKLKSMEAEMIQLQEELAAAERAKRQAQQERDELADEIANSSGKGALALEEKRRLEARIAQLEEELEEEQGNTELINDRLKKANLQIDQINTDLNLERSHAQKNENARQQLERQNKELKVKLQEMEGTVKSKYKASITALEAKIAQLEEQLDNETKERQAACKQVRRTEKKLKDVLLQVDDERRNAEQYKDQADKASTRLKQLKRQLEEAEEEAQRANASRRKLQRELEDATETADAMNREVSSLKNKLRRGDLPFVVPRRMARKGAGDGSDEEVDGKADGAEAKPAE | binds
5 | GST-LMM D1424N (domain or fragment, human, UniProt P35579 1212-1960, looked up, MYH9 disease mutation; source: E. coli Rosetta 2, purified (Glutathione Sepharose 4B); not shown: GST, N-terminal, kept) KANLEKAKQTLENERGELANEVKVLLQGKGDSEHKRKKVEAQLQELQVKFNEGERVRTELADKVTKLQVELDNVTGLLSQSDSKSSKLTKDFSALESQLQDTQELLQEENRQKLSLSTKLKQVEDEKNSFREQLEEEEEAKHNLEKQIATLHAQVADMKKKMEDSVGCLETAEEVKRKLQKDLEGLSQRHEEKVAAYDKLEKTKTRLQQELDNLLVDLDHQRQSACNLEKKQKKFDQLLAEEKTISAKYAEERDRAEAEAREKETKALSLARALEEAMEQKAELERLNKQFRTEMEDLMSSKDDVGKSVHELEKSKRALEQQVEEMKTQLEELEDELQATEDAKLRLEVNLQAMKAQFERDLQGRDEQSEEKKKQLVRQVREMEAELEDERKQRSMAVAARKKLEMDLKDLEAHIDSANKNRDEAIKQLRKLQAQMKDCMRELDDTRASREEILAQAKENEKKLKSMEAEMIQLQEELAAAERAKRQAQQERDELADEIANSSGKGALALEEKRRLEARIAQLEEELEEEQGNTELINDRLKKANLQIDQINTDLNLERSHAQKNENARQQLERQNKELKVKLQEMEGTVKSKYKASITALEAKIAQLEEQLDNETKERQAACKQVRRTEKKLKDVLLQVDDERRNAEQYKDQADKASTRLKQLKRQLEEAEEEAQRANASRRKLQRELEDATETADAMNREVSSLKNKLRRGDLPFVVPRRMARKGAGDGSDEEVDGKADGAEAKPAE | binds
6 | GST-LMM E1841K (domain or fragment, human, UniProt P35579 1212-1960, looked up, MYH9 disease mutation; also called E1814K [sic]; source: E. coli Rosetta 2, purified (Glutathione Sepharose 4B); not shown: GST, N-terminal, kept) KANLEKAKQTLENERGELANEVKVLLQGKGDSEHKRKKVEAQLQELQVKFNEGERVRTELADKVTKLQVELDNVTGLLSQSDSKSSKLTKDFSALESQLQDTQELLQEENRQKLSLSTKLKQVEDEKNSFREQLEEEEEAKHNLEKQIATLHAQVADMKKKMEDSVGCLETAEEVKRKLQKDLEGLSQRHEEKVAAYDKLEKTKTRLQQELDDLLVDLDHQRQSACNLEKKQKKFDQLLAEEKTISAKYAEERDRAEAEAREKETKALSLARALEEAMEQKAELERLNKQFRTEMEDLMSSKDDVGKSVHELEKSKRALEQQVEEMKTQLEELEDELQATEDAKLRLEVNLQAMKAQFERDLQGRDEQSEEKKKQLVRQVREMEAELEDERKQRSMAVAARKKLEMDLKDLEAHIDSANKNRDEAIKQLRKLQAQMKDCMRELDDTRASREEILAQAKENEKKLKSMEAEMIQLQEELAAAERAKRQAQQERDELADEIANSSGKGALALEEKRRLEARIAQLEEELEEEQGNTELINDRLKKANLQIDQINTDLNLERSHAQKNENARQQLERQNKELKVKLQEMEGTVKSKYKASITALEAKIAQLEEQLDNETKERQAACKQVRRTKKKLKDVLLQVDDERRNAEQYKDQADKASTRLKQLKRQLEEAEEEAQRANASRRKLQRELEDATETADAMNREVSSLKNKLRRGDLPFVVPRRMARKGAGDGSDEEVDGKADGAEAKPAE | binds
7 | GST-LMM D1424G (domain or fragment, human, UniProt P35579 1212-1960, looked up, MYH9 disease mutation; source: E. coli Rosetta 2, purified (Glutathione Sepharose 4B); not shown: GST, N-terminal, kept) KANLEKAKQTLENERGELANEVKVLLQGKGDSEHKRKKVEAQLQELQVKFNEGERVRTELADKVTKLQVELDNVTGLLSQSDSKSSKLTKDFSALESQLQDTQELLQEENRQKLSLSTKLKQVEDEKNSFREQLEEEEEAKHNLEKQIATLHAQVADMKKKMEDSVGCLETAEEVKRKLQKDLEGLSQRHEEKVAAYDKLEKTKTRLQQELDGLLVDLDHQRQSACNLEKKQKKFDQLLAEEKTISAKYAEERDRAEAEAREKETKALSLARALEEAMEQKAELERLNKQFRTEMEDLMSSKDDVGKSVHELEKSKRALEQQVEEMKTQLEELEDELQATEDAKLRLEVNLQAMKAQFERDLQGRDEQSEEKKKQLVRQVREMEAELEDERKQRSMAVAARKKLEMDLKDLEAHIDSANKNRDEAIKQLRKLQAQMKDCMRELDDTRASREEILAQAKENEKKLKSMEAEMIQLQEELAAAERAKRQAQQERDELADEIANSSGKGALALEEKRRLEARIAQLEEELEEEQGNTELINDRLKKANLQIDQINTDLNLERSHAQKNENARQQLERQNKELKVKLQEMEGTVKSKYKASITALEAKIAQLEEQLDNETKERQAACKQVRRTEKKLKDVLLQVDDERRNAEQYKDQADKASTRLKQLKRQLEEAEEEAQRANASRRKLQRELEDATETADAMNREVSSLKNKLRRGDLPFVVPRRMARKGAGDGSDEEVDGKADGAEAKPAE | binds
